This note sets out measurements from publication PMC3489985 (Analytical biochemistry, 2012).

One data set has as its target CpGSTD1 (Culex pipiens, UniProt H9M8E3). Put plainly: spectrophotometric enzyme kinetics. In kind it is biochemical.
For data set [1], the system named is O=[N+]([O-])c1ccc(Cl)c(Cl)c1. Put plainly: spectrophotometric enzyme kinetics. Conditions: 30.0 °C. Format: biochemical, Culex pipiens.
Substrate in data set [2]: Cc1cc(=O)oc2ccc(OC(=O)[C@H]3[C@@H](/C=C(\Cl)C(F)(F)F)C3(C)C)cc12
Put plainly: fluorescent enzyme kinetics. The note with it: GSH; 30.0 °C. In kind it is biochemical, Culex pipiens.

Substrate in data set [3]: Cc1cc(=O)oc2ccc(OC(=O)[C@H]3[C@@H](C=C(Cl)Cl)C3(C)C)cc12
Kind of data set: fluorescent enzyme kinetics. Format: biochemical, Culex pipiens. Conditions: GSH; 30.0 °C.

As for `O=[N+]([O-])c1ccc(Cl)c([N+](=O)[O-])c1` [CDNB, 1-chloro-2,4-dinitrobenzene], the Km on CpGSTD1 stood at 240 ± 18 µM.

Take CpGSTD1 (Culex pipiens): in data set [1], the Km came out at 691 ± 106 µM, the Vmax was 2.32 ± 0.152 µmol/min/mg, the kcat came to 0.92 s⁻¹ and the catalytic efficiency (kcat/Km) was 1300 M⁻¹ s⁻¹.

B1: CpGSTD1 (Culex pipiens) (protein)
chain: MDFYYLPGSAPCRAVQMTAAAVGVELNLKLTNLMAGEHMKPEFLKLNPQHTIPTLVDNGFSLWESRAIQIYLVEKYGKDDSLYPKDPQKRALVNQRLFFDMGVFYQRFGDYWYPQIFAKQPANADNEKKMQEAVAFLNTFLEGHQYAAGDQLTIADLSLAASAATYEVAGFDFSKYPNVQAWLERCKKNAPGYDLNQAGADEFNAKFLGGK
For B1, in data set [2], the Km is 10.0 ± 0.7 µM, the maximal velocity (Vmax) is 0.487 µmol/min/mg, the kcat is 0.19 s⁻¹ and the kcat/Km was 19000 M⁻¹ s⁻¹. Further, in data set [3], the Km was determined as 9.0 ± 0.8 µM, the Vmax was 0.298 µmol/min/mg, the kcat was determined as 0.12 s⁻¹ and the catalytic efficiency (kcat/Km) worked out at 13000 M⁻¹ s⁻¹.
